Assays:
[1] = molecular target: Cyno TfR extracellular domain (analogous ecd construct) (cynomolgus monkey); experiment: SPR, bispecific antibody
[2] = molecular target: Human TfR extracellular domain (ecd) containing an N-terminal His tag (human) (UniProt P02786); experiment: SPR, bispecific antibody
Chain of Human TfR extracellular domain (ecd) containing an N-terminal His tag (human) (P02786 89-760 G142S): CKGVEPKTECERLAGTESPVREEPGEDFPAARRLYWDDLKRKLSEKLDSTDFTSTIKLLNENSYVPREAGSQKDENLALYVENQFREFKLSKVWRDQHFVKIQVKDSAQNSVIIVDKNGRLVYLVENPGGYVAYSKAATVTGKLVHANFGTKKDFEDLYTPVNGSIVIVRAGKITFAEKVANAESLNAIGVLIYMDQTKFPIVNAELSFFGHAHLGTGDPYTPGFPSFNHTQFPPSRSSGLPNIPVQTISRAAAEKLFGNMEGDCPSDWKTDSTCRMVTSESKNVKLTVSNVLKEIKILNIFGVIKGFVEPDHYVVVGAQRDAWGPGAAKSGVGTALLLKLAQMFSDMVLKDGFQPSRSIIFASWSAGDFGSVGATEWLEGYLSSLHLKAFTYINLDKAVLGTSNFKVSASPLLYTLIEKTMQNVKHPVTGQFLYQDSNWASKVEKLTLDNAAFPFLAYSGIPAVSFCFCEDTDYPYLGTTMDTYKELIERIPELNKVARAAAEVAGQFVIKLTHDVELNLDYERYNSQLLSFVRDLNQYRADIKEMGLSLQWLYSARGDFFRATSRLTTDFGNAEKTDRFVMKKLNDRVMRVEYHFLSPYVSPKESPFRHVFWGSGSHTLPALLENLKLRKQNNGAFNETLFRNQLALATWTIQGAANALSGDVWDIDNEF

Chain of Cyno TfR extracellular domain (analogous ecd construct) (cynomolgus monkey) (Q5RDH6 other isoform, or with tags, fused parts or gaps): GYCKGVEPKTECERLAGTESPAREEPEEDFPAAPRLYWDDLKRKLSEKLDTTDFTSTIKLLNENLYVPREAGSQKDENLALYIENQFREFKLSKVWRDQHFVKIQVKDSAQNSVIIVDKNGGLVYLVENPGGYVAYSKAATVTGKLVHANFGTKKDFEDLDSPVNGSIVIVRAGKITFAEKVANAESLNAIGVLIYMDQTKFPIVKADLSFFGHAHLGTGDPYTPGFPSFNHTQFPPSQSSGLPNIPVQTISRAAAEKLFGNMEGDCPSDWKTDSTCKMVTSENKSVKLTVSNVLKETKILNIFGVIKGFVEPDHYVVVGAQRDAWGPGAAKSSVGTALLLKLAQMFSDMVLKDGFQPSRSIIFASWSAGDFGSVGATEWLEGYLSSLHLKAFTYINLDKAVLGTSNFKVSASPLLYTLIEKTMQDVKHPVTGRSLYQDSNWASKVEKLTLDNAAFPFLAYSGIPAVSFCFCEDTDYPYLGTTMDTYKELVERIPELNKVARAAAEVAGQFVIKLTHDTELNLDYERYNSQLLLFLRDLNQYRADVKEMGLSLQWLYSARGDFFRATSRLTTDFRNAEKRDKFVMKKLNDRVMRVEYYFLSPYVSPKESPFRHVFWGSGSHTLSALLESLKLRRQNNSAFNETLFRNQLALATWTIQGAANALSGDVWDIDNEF

Kd [1]: 143 nM
Kd [2]: 24 nM
B1: Anti-TfR^53A/BACE1 bispecific antibody, human IgG1 N297G (bispecific antibody, part only; not given: anti-BACE1 half-antibody, V domains shown, not shown: another chain or arm of the molecule; a dimerising Fc or GST; small tags and cut ends)
VH: EVQLVQSGAEVKKPGASVKVSCKASGYTFTSYWMHWVRQAPGQRLEWIGEINPANGRTNYIEKFKSRATLTVDKSASTAYMELSSLRSEDTAVYYCARGTRAYHYWGQGTMVTVSS
VL: DIQMTQSPSSLSASVGDRVTITCRASDNLYSNLAWYQQKPGKSPKLLVYDATNLADGVPSRFSGSGSGTDYTLTISSLQPEDFATYYCQHFWGTPLTFGQGTKVEIK
